Tested on: K4 kissing-loop RNA reporter
Assay: apparent KD of K4 kissing-loop reporter; higher = weaker reporter binding
Conditions: Eterna round: R107
Procedure: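 RNA-MaP round R107: designed RNA switches with theophylline, tryptophan, arginine or FMN aptamers are transcribed on-chip within common flanks. They are titrated with a labelled K4 kissing-loop RNA reporter in RNA-MaP buffer (100 mM Tris pH 7.5, 80 mM KCl, 4 mM MgCl2), without ligand or with the indicated ligand. Median apparent KD per design.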

[1] = input ligand: theophylline 20 uM
[2] = input ligand: tryptophan 2.4 mM
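Also: bound reporter read as fluorescence of individual clusters on recovered sequencing chips by microscopy, with normalized cluster intensities fitted with a binding model.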

| Sequence | apparent KD of K4 kissing-loop reporter (input ligand: FMN 200 uM) | apparent KD of K4 kissing-loop reporter (input ligand: arginine 13.2 mM) | apparent KD of K4 kissing-loop reporter (input ligand: none) | apparent KD of K4 kissing-loop reporter [1] | apparent KD of K4 kissing-loop reporter [2] |
| --- | --- | --- | --- | --- | --- |
| AACGCUGGUGAAUAACACUAGCGAAAUUCGCGAGGACCGGUACGGCCGCCACUCGCUAACUGCGAGUGAUGUUCGAUAAUAAAAU [Mat - Mod of OpenEnded 3 - D7] | 174 nM | 125 nM | 197 nM | 280 nM | 122 nM |
| AACGUUUUGAGAAGGAGCGCGUUAAGCAGUGAUGUUGCUUUAUUUUAUCAAAUACAUAUAUCGCAGGUAGGUCGCUCAAUACGUA [JR_Nu_SSArginiB_Sub026] | 304 nM | 218 nM | 253 nM | 283 nM | 230 nM |
| AACGUUUUGUGAAGGAGCGCGAUAAGCAGUGAUGUUGCUUACUUACAAUUUAUAUUUUACACGCAGGUAGGUCGCACAAUACGUA [JR_SSArginiB_Sub017] | 207 nM | 160 nM | 190 nM | 163 nM | 173 nM |
| AACUGGGUUCGUGAUACCAGCUCACACAUGAGUGAUGUUGAUGUAGUGGGCAAAAUGUGGAGCCCUUGGCAGCACUGUGACCACG [XTheo-B3] | 422 nM | 358 nM | 411 nM | 378 nM | 371 nM |
| AACUGUCAAGGACAACAUUACUGCAGUGAUACCAGCAUCGAAAGAUGCCCUUGGCAGCACUAACUUGCAGUGAUGUUGCAAGUAA [BrourdMod 4 - Jieux - Exclusion - Theophylline A] | 313 nM | 245 nM | 256 nM | 225 nM | 264 nM |
| AAGCAGUCACUCGAACCCAUCGAAGAUGGGCGAGGACCGGUACGGCCGCCACUCGGAGUGAUGUUCCGCAGACUGCAAAAUAAAA | 679 nM | 265 nM | 339 nM | 249 nM | 164 nM |
| AAGCAGUCACUCGAAGCCAUCGAAGAUGGGCGAGGACCGGUACGGCCGCCACUCGGAGUGAUGUUCCGAAGACUGCAAAAUAAAA | 512 nM | 669 nM | 498 nM | 508 nM | 567 nM |
| AAGCAGUCAGGAUCGAAGAUCCUGCAAAACCGAGGACCGGUACGGCCGCCACUCGGAGUGAUGUUCCGAAGACUGCAAAAUAAAA [#SwitchBubble 6] | 191 nM | 152 nM | 213 nM | 150 nM | 64.5 nM |
| AAGCAUUCUUCGGAAUGCAGACCCGCUGAGGAGGAUAUGACGAAAGUCAGAAGGUUUCAGUGAUGUUGAGGCCUCCUCAAUGGUC [whbob_Ex_FMNA__2th182] | 305 nM | 256 nM | 293 nM | 285 nM | 291 nM |
| AAGGGCGAGGUAACGUGGAUAUCUCGUCGCAAGGAUAUCUGGAAACAGAGAAGGUGCGACAUCACCGGCAGUGAUGUUGCUGGGC | 298 nM | 185 nM | 233 nM | 227 nM | 181 nM |
| AAGGGCGGAACAACCUCGCCGGAUAGAGAUACCAGCCCAGCAAUGGGCCCUUGGCAGCUCACUGACCUCAGUGAUGUUGAGGUUC [Laar] | 243 nM | 220 nM | 248 nM | 188 nM | 232 nM |
| AAGGUCACUACUACAGUGAUGUUGUGGGAGCAGGAUAUGCAGAAAUGCAGAAGGGCUCGCUCCAAGUGACCGAAUGAAACAUUCA [Omei KL FMN A SS A v1] | 1170 nM | 876 nM | 839 nM | 1210 nM | 938 nM |
| AAGUCAUACAGAAGGAGCGUGUUUUAUAAUUUAUUUUCAUGAUCGAGUGAUGUUCGAUAUACACAGGUAGGUCGCUGUAUAAUAA [JR_SSArginiB_Sub007] | 102 nM | 146 nM | 121 nM | 146 nM | 103 nM |
| AAGUCAUAGGCAGGAUAUGCAUAGUAAUAAGGCCAUAUAUACGUAUAGAGUGAUGUUUUGUACCAGGCAGAAGGGCUACAUCAGU [FMN B Excl V7 (+3A)] | 550 nM | 506 nM | 594 nM | 643 nM | 470 nM |
| AAGUCAUAGGCAGGAUAUGCUUAGUAUUAAGGCCAUAUAUACGUAUAGAGUGAUGUUUUGUACCAGGCAGAAGGGCUACAUCAGU [FMN B Excl V6 (+A)] | 448 nM | 483 nM | 603 nM | 634 nM | 536 nM |
| AAGUCAUAUAGAAGGAGCGUGUUUUUUAAUUUAUUUUCAUGAUCGAGUGAUGUUCGAUAUACACAGGUAGGUCGCUGUAUAAUAA [hbob_SS_Arginine_B_2t141] | 126 nM | 145 nM | 127 nM | 179 nM | 112 nM |
| AAGUGAUGUUGUAGUGAUGUUGUGAUGUUGCAGGAUAUAUAGUGAUGUAGAAGGGUAUGUACUUAUUUGUUUUUUGAGUUAUGUU [zzazzrmullin] | 65.9 nM | 28.5 nM | 53.1 nM | 41 nM | 53.8 nM |
| AAGUGUCAUUAGACACACCGAUGUAUAAACUAGGAUAUGCUGAUAAGCAGAAGGAGUGAUGUUCCUUUCAUCAUCGGAAUUAAAU [#06 K4 FMN A Exclusion] | 301 nM | 161 nM | 160 nM | 175 nM | 144 nM |
| AAUAAAAGAUGUUUAGGAAAGAAAAUGGAAGGAGCGUGCGAAAGCACAGGUAGGUCGCCAGUGAUGUUGGAACCUGAGCAUCAAA [#SwitchBubble 15 #K4Late] | 827 nM | 479 nM | 699 nM | 677 nM | 436 nM |
| AAUAAAAUCACGGCCGCCACUGAUUUCCGUAUUAGGAGUGAUGUUCCUAUGACUAUAUAAUUUAACAGGACCGGGUGAAUAUUUA [#21 K4 Tryptophan B Exclusion] | 111 nM | 109 nM | 110 nM | 107 nM | 97.8 nM |
| AAUAAUAUACAAAGGCGAACGAAUAGGGAAGGAGCGCGAUAUAACGCAGGUAGGUCGCCCAUAUUUUUAGUGAUGUUAGAGAAUA [E. Arginine A Tesla 1] | 938 nM | 762 nM | 766 nM | 920 nM | 757 nM |
| AAUGUACAAGUGAUGUUUGUACUUUCCGAAGGAGCGUCAAAUAAGACAGGUAGGUCGCGGAUACUCUAAAUAAUCAGGUCAUUAA [JR_ExcArginiA_Sub019] | 89.4 nM | 88 nM | 88.9 nM | 87.2 nM | 85 nM |

| Sequence | apparent KD of K4 kissing-loop reporter (input ligand: FMN 200 uM) | apparent KD of K4 kissing-loop reporter (input ligand: arginine 13.2 mM) | apparent KD of K4 kissing-loop reporter (input ligand: none) | apparent KD of K4 kissing-loop reporter [1] | apparent KD of K4 kissing-loop reporter [2] |
| --- | --- | --- | --- | --- | --- |
| AAUGUACAGGGAAGGAGCGUAGUCCAGUGAUGUUGGAAUUAAAUACCAGUGAUGUUGGUUAUACAGGUAGGUCGCCCUAAAGUGC [KL-XARG-B20] | 86.3 nM | 72.3 nM | 81.9 nM | 89.5 nM | 73.2 nM |
| AAUUCAGUGAUGUUGGAAGGCAGGCGGGAUACCAGCGGAGAAUAACGCCCUUGGCAGCCCAAAUAUCCCAAAUAGAUAAUAGUUC [Same State - Theophylline A (Freestyle 2)] | 474 nM | 353 nM | 481 nM | 475 nM | 450 nM |
| AAUUUAUUAACUGAUACCAGACUUUAUUAUUUGUAAAUUACUAGUGAUGUUAGUGUUUCUGUCCCUUGGCAGCAGUAUUUAUUAA [JR_SSTheophyB_Sub024] | 78.8 nM | 142 nM | 90.3 nM | 134 nM | 70.5 nM |
| AAUUUUAAUAAUAAAUAAUAAAUAAAUGAUACCAGUAUUUUUUUUUACCCUUGGCAGCGUAUAUAAGGGCAGUGAUGUUGUCAAA [whbob_SS_Theo_A_w58] | 205 nM | 136 nM | 153 nM | 196 nM | 169 nM |
| AAUUUUAAUCAUAAAUAAUAAAUAAAUGAUACCAGUAUUUUUUUUUACCCUUGGCAGCGUAUAUAAGGGCAGUGAUGUUGUCAGA [whbob_SS_Theo_A_w60] | 236 nM | 98.8 nM | 257 nM | 222 nM | 164 nM |
| ACACGUGUGGCAGGAUAUCGGGCUGUGGAUCGGCUGGUUGCUUAUUCUCGACCAGUGAUGUUGGUACGAGAAGGGCUACCCAGAA [Diorce] | 149 nM | 113 nM | 114 nM | 102 nM | 123 nM |
| ACACUAUCGUCAUAGACGGUAGUGAAAUGUGAGGAUAUGAGUGAUGUUAGAAGGCACAAAGACUGUAUCGAAUAGAUACAGUCAA [FmnA 6 #K4BetweenAptamer #OpenEnded] | 558 nM | 96.5 nM | 139 nM | 127 nM | 120 nM |
| ACACUUACACAUGAUACCAGAAUUCUACCGUAAAUAGUAAGUGAUGUUUGCUAACGGCUUUUCCCUUGGCAGCAUGAUCGGUAUU [theeternabot_sameState_KL_Theo_B_43] | 201 nM | 121 nM | 178 nM | 242 nM | 149 nM |
| ACACUUUACGUAGGAUAUGCGACGAGUGAUGUUCGUCAGGCGGCUUGAGCUUAAACAGGCCGUCUAGCAGAAGGACGGGCAGUGU [Diorsodi] | 147 nM | 143 nM | 192 nM | 194 nM | 168 nM |
| ACAGUCGGCUGUGAUACCAGUCGUAUUACAACAUGUUGCAGUGAUGUUGCGAGAUAGGAUGACCCUUGGCAGCACUCAGUACGAU [Same State Theophylline B GF9] | 310 nM | 99.7 nM | 173 nM | 179 nM | 144 nM |
| ACCUAGUAGACAGGAUAUCACGAUGACAGUGAUGUUGUCAUCAUCGAUUUGAGGAAACUCAGAUCGUGAGAAGGGUCUAACGACU [FMN B SS t7a] | 147 nM | 173 nM | 204 nM | 168 nM | 190 nM |
| ACGUCACGUAUACUGGUGGUUUCGAUCGAUACCAGUAGCGAGAGUUACCCUUGGCAGCGACAUGAGUGAUGUUUAUGUAUGAUGA [#13 K4 Theophylline A Exclusion] | 639 nM | 551 nM | 593 nM | 560 nM | 492 nM |
| ACGUCCGGAUUAAUCGUGGGCAUGGUCGAUACCAGAUCUUUAAUGAUCCCUUGGCAGCGACAUGAGUGAUGUUCAUGUGCGAUGA [KL-XTheo-A8 #analogue] | 188 nM | 152 nM | 186 nM | 244 nM | 179 nM |
| ACGUCCGGAUUGAUCGUGGGCAUGGUCGAUACCAGUAGUUUAAUCUACCCUUGGCAGCGACAUGAGUGAUGUUCAUGUGCGGUGA [#14 K4 Theophylline A Exclusion] | 194 nM | 191 nM | 188 nM | 402 nM | 200 nM |
| ACGUGCACCAGUGAUGUUGGAAAAUAUGAAGGAGCGGGUGAAAGCCCAGGUAGGUCGCAUAAUAGCACGAGCCACGAAAGUGGCA | 131 nM | 175 nM | 184 nM | 154 nM | 117 nM |
| AGAACUGUCUGAGAUACCAGCCAGGAAGUGAUGUUUCCAGCUCCACGAAAGUGGAGCCAUGGCCCUUGGCAGCUCAGACAGUUCA [Omei KL Theo B SS A v5] | 150 nM | 141 nM | 147 nM | 105 nM | 154 nM |
| AGACUACCACACUGUCAAUAGACAGUGAGCUAGGAUAUGCUGAUAAGCAGAAGGAGUGAUGUUCCGAGGUAGUCAAUAAAAUAAU [FmnAX 13 G29+G66] | 395 nM | 273 nM | 261 nM | 357 nM | 257 nM |
| AGACUACCACACUGUCAAUAGACAGUGGACUAGGAUAUGCUGAUAAGCAGAAGGAGUGAUGUUCCUCGGUAGUCAAUAAAAUAAU [FmnAX 13 G28+C67] | 323 nM | 318 nM | 286 nM | 489 nM | 273 nM |
| AGAGAUAUAUGAGGAUAUGAGUUAGUUAAUGAGUUAGUUUUAGUGUUGUUUGGUUAGUGAUGUUAUUUAGAAGGCGUGAGUGAUG [cxfsmullin] | 89.7 nM | 66.4 nM | 67.7 nM | 96.9 nM | 60.8 nM |
| AGAGUUAUGAGAGGAUAUGCGGCUAGUACUCAAAGAGUACUAGCAGCAGAGUGAUGUUCUGUGAAAGCAGAAGGUUCAUAACUCA [#06 K4 FMN B Same State] | 124 nM | 668 nM | 627 nM | 563 nM | 641 nM |
| AGAUUCGACACGGCCGCCACUCGUGGUGGAUUACCUAGUGUCGAAGUUGAGUGAUGUUCAAGUACGAGGACCGGGUGUUGAGUCU [KL-XTryp-B8 #analogue] | 420 nM | 310 nM | 370 nM | 403 nM | 500 nM |
